Experimental data published in patent publication US20120156198A1 (Hoffmann-La Roche, published 2012).

T1: human IL-18Rα (IL-18R1) on human cells (KG-1 cells, PBMC, TH1-cultured T cells, whole blood) (human, UniProt Q13478 19-541)
T1 sequence: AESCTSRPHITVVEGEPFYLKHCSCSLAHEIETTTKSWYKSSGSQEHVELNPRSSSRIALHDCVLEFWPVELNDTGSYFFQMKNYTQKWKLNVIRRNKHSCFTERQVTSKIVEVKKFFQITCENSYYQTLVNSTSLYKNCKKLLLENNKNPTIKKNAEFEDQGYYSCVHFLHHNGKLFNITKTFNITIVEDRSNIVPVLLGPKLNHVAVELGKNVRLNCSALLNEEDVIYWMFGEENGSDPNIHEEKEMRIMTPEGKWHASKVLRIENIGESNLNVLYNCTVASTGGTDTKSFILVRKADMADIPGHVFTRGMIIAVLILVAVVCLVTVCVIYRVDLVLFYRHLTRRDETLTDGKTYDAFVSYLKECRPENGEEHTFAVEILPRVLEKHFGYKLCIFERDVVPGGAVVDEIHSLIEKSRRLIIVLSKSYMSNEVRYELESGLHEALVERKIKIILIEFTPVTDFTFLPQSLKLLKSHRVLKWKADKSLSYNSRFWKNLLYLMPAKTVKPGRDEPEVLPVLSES


What was measured:
[1] = molecular target: human IL-18Rα (IL-18R1) on human cells (KG-1 cells, PBMC, TH1-cultured T cells, whole blood) (human) (UniProt Q13478); experiment: cell-based or functional assay
[2] = molecular target: recombinant human IL-18Rα Fc chimera (R&D Systems, Cat. No. 816-LR) (human) (UniProt Q13478); experiment: SPR cross-competition, second experiment; antibody 2 injected on hIL-18Rα hFc held by captured antibody 1 (competitor): Mab840
[3] = molecular target: recombinant human IL-18Rα Fc chimera (R&D Systems, Cat. No. 816-LR) (human) (UniProt Q13478); experiment: SPR cross-competition, second experiment; antibody 2 injected on hIL-18Rα hFc held by captured antibody 1 (competitor): Mab1G12
[4] = molecular target: recombinant human IL-18Rα Fc chimera (R&D Systems, Cat. No. 816-LR) (human) (UniProt Q13478); experiment: SPR cross-competition, second experiment; antibody 2 injected on hIL-18Rα hFc held by captured antibody 1 (competitor): Mab2D11
[5] = molecular target: T1, human IL-18Rα (IL-18R1) on human cells …; experiment: cell-based or functional assay

| Molecule | human TH1-assay (IFN-γ after IL-18/IL-12 restimulation), IC90 [pM] [5] [pM] | further results |
| --- | --- | --- |
| anti-human IL-18Rα murine MAb Clone 70625 (R&D Systems #MAB840) (antibody) |  | IL-18 induced IFNγ production by human KG-1 cells, IC50 [pM] [1]: 798 pM; percentage of expected binding response for antibody 2 [2]: 13%; percentage of expected binding response for antibody 2 [3]: 97%; percentage of expected binding response for antibody 2 [4]: 97% |
| humanized Mab1G12-9.6 (antibody, V domains shown) VH: QVQLVQSGAEVKKPGASVKVSCKASDYTFTSNWMHWVRQAPGQGLEWMGTIDPSDSYTYYNQKFQGRVTMTRDTSTSTVYMELSSLRSEDTAVYYCTTSGDYDADRYFDVWGQGTTVTVSS VL: EIVLTQSPGTLSLSPGERATLSCRASKSVSTSGDSYMHWYQQKPGQAPRLLIYLASNLETGIPDRFSGSGSGTDFTLTISRLEPEDFAVYYCQQSRELPLSFGQGTKLEIK | 148 |  |
| humanized Mab1G12-10.6 (antibody, V domains shown) VH: QVQLVQSGAEVKKPGASVKVSCKASDYTFTSNWMHWVRQAPGQGLEWMGTIDPSDSYTYYNQKFQGRATMTVDTSTSTVYMELSSLRSEDTAVYYCTTSGDYDADRYFDVWGQGTTVTVSS VL: EIVLTQSPGTLSLSPGERATLSCRASKSVSTSGDSYMHWYQQKPGQAPRLLIYLASNLETGIPDRFSGSGSGTDFTLTISRLEPEDFAVYYCQQSRELPLSFGQGTKLEIK | 93.5 |  |
| humanized Mab1G12-12.6 (antibody, V domains shown) VH: QVQLVQSGAEVKKPGASVKVSCKASGYTFTSNWMHWVRQAPGQGLEWMGTIDPSDSYTYYAQKLQGRVTMTTDTSTSTAYMELRSLRSDDTAVYYCTTSGDYDADRYFDVWGQGTTVTVSS VL: EIVLTQSPGTLSLSPGERATLSCRASKSVSTSGDSYMHWYQQKPGQAPRLLIYLASNLETGIPDRFSGSGSGTDFTLTISRLEPEDFAVYYCQQSRELPLSFGQGTKLEIK | 399 |  |
| humanized Mab1G12-10.5 (antibody, V domains shown) VH: QVQLVQSGAEVKKPGASVKVSCKASDYTFTSNWMHWVRQAPGQGLEWMGTIDPSDSYTYYNQKFQGRATMTVDTSTSTVYMELSSLRSEDTAVYYCTTSGDYDADRYFDVWGQGTTVTVSS VL: DIQMTQSPSSLSASVGDRVTITCQASKSVSTSGDSYMHWYQQKPGKAPKLLIYLASNLETGVPSRFSGSGSGTDFTFTISSLQPEDIATYYCQQSRELPLSFGQGTKLEIK | 283 |  |
| humanized Mab1G12-11.6 (antibody, V domains shown) VH: QVQLVQSGAEVKKPGASVKVSCKASGYTFTSNWMHWVRQAPGQGLEWMGTIDPSDSYTYYAQKFQGRVTMTRDTSISTAYMELSRLRSDDTAVYYCTTSGDYDADRYFDVWGQGTTVTVSS VL: EIVLTQSPGTLSLSPGERATLSCRASKSVSTSGDSYMHWYQQKPGQAPRLLIYLASNLETGIPDRFSGSGSGTDFTLTISRLEPEDFAVYYCQQSRELPLSFGQGTKLEIK | 77 |  |
